{"source": "patent US20110311550A1", "about": "(Scripps Research, published 2011)", "test_in_all_cases": "ELISA, lectin-captured E1E2 lysate, Ab 1 ug/ml", "key": {"[1]": {"molecular_target": "E1E2 complex (H77) with E1 mutation H352A (HCV genotype 1a, isolate H77, UniProt P27958 192-383; P27958 384-746)"}, "[2]": {"molecular_target": "E1E2 complex (H77) with E1 mutation W353A (HCV genotype 1a, isolate H77, UniProt P27958 192-383; P27958 384-746)"}, "[3]": {"molecular_target": "E1E2 complex (H77) with E1 mutation N305A (HCV genotype 1a, isolate H77, UniProt P27958 192-383; P27958 384-746)"}, "[4]": {"molecular_target": "E1E2 complex (H77) with E1 mutation N196A/N305A (HCV genotype 1a, isolate H77, UniProt P27958 192-383; P27958 384-746)"}, "[5]": {"molecular_target": "E1E2 complex (H77) with E1 mutation H261A (HCV genotype 1a, isolate H77, UniProt P27958 192-383; P27958 384-746)"}, "[6]": {"molecular_target": "E1E2 complex (H77) with E1 mutation G350A (HCV genotype 1a, isolate H77, UniProt P27958 192-383; P27958 384-746)"}, "[7]": {"molecular_target": "E1E2 complex (H77) with E1 mutation M324A (HCV genotype 1a, isolate H77, UniProt P27958 192-383; P27958 384-746)"}, "[8]": {"molecular_target": "E1E2 complex (H77) with E1 mutation W239A (HCV genotype 1a, isolate H77, UniProt P27958 192-383; P27958 384-746)"}, "[9]": {"molecular_target": "E1E2 complex (H77) with E1 mutation G225A (HCV genotype 1a, isolate H77, UniProt P27958 192-383; P27958 384-746)"}, "[10]": {"molecular_target": "E1E2 complex (H77) with E1 mutation Q289A (HCV genotype 1a, isolate H77, UniProt P27958 192-383; P27958 384-746)"}, "[11]": {"molecular_target": "E1E2 complex (H77) with E1 mutation M318A (HCV genotype 1a, isolate H77, UniProt P27958 192-383; P27958 384-746)"}, "[12]": {"molecular_target": "E1E2 complex (H77) with E2 mutation G436A (HCV genotype 1a, isolate H77, UniProt P27958 192-383; P27958 384-746)"}, "[13]": {"molecular_target": "E1E2 complex (H77) with E2 mutation R630A (HCV genotype 1a, isolate H77, UniProt P27958 192-383; P27958 384-746)"}, "[14]": {"molecular_target": "E1E2 complex (H77) with E2 mutation N428A (HCV genotype 1a, isolate H77, UniProt P27958 192-383; P27958 384-746)"}, "[15]": {"molecular_target": "E1E2 complex (H77) with E2 mutation Y618A (HCV genotype 1a, isolate H77, UniProt P27958 192-383; P27958 384-746)"}, "[16]": {"molecular_target": "E1E2 complex (H77) with E2 mutation G635A (HCV genotype 1a, isolate H77, UniProt P27958 192-383; P27958 384-746)"}, "[17]": {"molecular_target": "E1E2 complex (H77) with E2 mutation A439G (HCV genotype 1a, isolate H77, UniProt P27958 192-383; P27958 384-746)"}, "[18]": {"molecular_target": "E1E2 complex (H77) with E2 mutation T435A (HCV genotype 1a, isolate H77, UniProt P27958 192-383; P27958 384-746)"}, "[19]": {"molecular_target": "E1E2 complex (H77) with E2 mutation A642G (HCV genotype 1a, isolate H77, UniProt P27958 192-383; P27958 384-746)"}, "[20]": {"molecular_target": "E1E2 complex (H77) with E2 mutation R639A (HCV genotype 1a, isolate H77, UniProt P27958 192-383; P27958 384-746)"}, "[21]": {"molecular_target": "E1E2 complex (H77) with E2 mutation R614A (HCV genotype 1a, isolate H77, UniProt P27958 192-383; P27958 384-746)"}, "[22]": {"molecular_target": "E1E2 complex (H77) with E2 mutation Y624A (HCV genotype 1a, isolate H77, UniProt P27958 192-383; P27958 384-746)"}}}
{"binder": "N4 IgG (antibody, V domains shown, also called IgG N4) VH: VQLLEQSGPEVKKPGDSLRISCKMSGDSLVTTWIGWVRQKPGQGLEWMGIINPGDSSTNIYPGDSATRYGPSFQGQVTISIDKSTSTAYLQWNNVKASDTGIYYCARHVPVPISGTFLWREREMHDFGYFDDWGQGTLVIVSS VL: ELTLTQSPGTLSLSPGERATLSCRASQSVSNNYLAWYQQKPGQAPRLLIYGASSRATGIPDRFSGSGSGTGFTLIISRLEPEDFAVYYCQQYGSSSITFGQGTRLEIKR", "values": [{"measurement": "Binding relative to wt (%)", "setting": "[1]", "result": 60, "unit": "%"}, {"measurement": "Binding relative to wt (%)", "setting": "[2]", "result": 70, "unit": "%"}, {"measurement": "Binding relative to wt (%)", "setting": "[3]", "result": 42, "unit": "%"}, {"measurement": "Binding relative to wt (%)", "setting": "[4]", "result": 4, "unit": "%"}, {"measurement": "Binding relative to wt (%)", "setting": "[5]", "result": 106, "unit": "%"}, {"measurement": "Binding relative to wt (%)", "setting": "[6]", "result": 68, "unit": "%"}, {"measurement": "Binding relative to wt (%)", "setting": "[7]", "result": 89, "unit": "%"}, {"measurement": "Binding relative to wt (%)", "setting": "[8]", "result": 67, "unit": "%"}, {"measurement": "Binding relative to wt (%)", "setting": "[9]", "result": 79, "unit": "%"}, {"measurement": "Binding relative to wt (%)", "setting": "[10]", "result": 94, "unit": "%"}, {"measurement": "Binding relative to wt (%)", "setting": "[11]", "result": 92, "unit": "%"}, {"measurement": "Binding relative to wt (%)", "setting": "[12]", "result": 107, "unit": "%"}, {"measurement": "Binding relative to wt (%)", "setting": "[13]", "result": 115, "unit": "%"}, {"measurement": "Binding relative to wt (%)", "setting": "[14]", "result": 98, "unit": "%"}, {"measurement": "Binding relative to wt (%)", "setting": "[15]", "result": 33, "unit": "%"}, {"measurement": "Binding relative to wt (%)", "setting": "[16]", "result": 80, "unit": "%"}, {"measurement": "Binding relative to wt (%)", "setting": "[17]", "result": 12, "unit": "%"}, {"measurement": "Binding relative to wt (%)", "setting": "[18]", "result": 122, "unit": "%"}, {"measurement": "Binding relative to wt (%)", "setting": "[19]", "result": 65, "unit": "%"}, {"measurement": "Binding relative to wt (%)", "setting": "[20]", "result": 114, "unit": "%"}, {"measurement": "Binding relative to wt (%)", "setting": "[21]", "result": 16, "unit": "%"}, {"measurement": "Binding relative to wt (%)", "setting": "[22]", "result": 59, "unit": "%"}]}
